For orientation: EC50 means the midpoint of the concentration-response curve.

Changes are numbered by the printed parent chain.

These results are taken from patent US20030040042A1, “Recombinant fibroblast growth factors” (published 2003).

Experiment [1] deals with FGF receptor on Balb/c 3T3 cells. The experiment is described as follows: competition with [125I]-bFGF on Balb/c 3T3 cells, 1 ug/ml heparin.
The target is the same in experiment [2].
For experiment [3] the target is unchanged. Briefly: competition with [125I]-bFGF on Balb/c 3T3 cells, no heparin.
For experiment [4] the target is unchanged. This is another data set of the same source.
In experiment [5] the target is FGF receptor on bovine adrenal cortex capillary endothelial (ACE) cells (bovine) (UniProt P12820).
The target of experiment [6] is FGF receptor on Balb/c 3T3 cells. The experiment is described as follows: competition with [125I]-bFGF on Balb/c 3T3 cells.
Experiment [7] has as its target T1, FGF receptor on bovine adrenal cortex capillary endothelial (ACE) cells (bovine, UniProt P12820).
T1 sequence: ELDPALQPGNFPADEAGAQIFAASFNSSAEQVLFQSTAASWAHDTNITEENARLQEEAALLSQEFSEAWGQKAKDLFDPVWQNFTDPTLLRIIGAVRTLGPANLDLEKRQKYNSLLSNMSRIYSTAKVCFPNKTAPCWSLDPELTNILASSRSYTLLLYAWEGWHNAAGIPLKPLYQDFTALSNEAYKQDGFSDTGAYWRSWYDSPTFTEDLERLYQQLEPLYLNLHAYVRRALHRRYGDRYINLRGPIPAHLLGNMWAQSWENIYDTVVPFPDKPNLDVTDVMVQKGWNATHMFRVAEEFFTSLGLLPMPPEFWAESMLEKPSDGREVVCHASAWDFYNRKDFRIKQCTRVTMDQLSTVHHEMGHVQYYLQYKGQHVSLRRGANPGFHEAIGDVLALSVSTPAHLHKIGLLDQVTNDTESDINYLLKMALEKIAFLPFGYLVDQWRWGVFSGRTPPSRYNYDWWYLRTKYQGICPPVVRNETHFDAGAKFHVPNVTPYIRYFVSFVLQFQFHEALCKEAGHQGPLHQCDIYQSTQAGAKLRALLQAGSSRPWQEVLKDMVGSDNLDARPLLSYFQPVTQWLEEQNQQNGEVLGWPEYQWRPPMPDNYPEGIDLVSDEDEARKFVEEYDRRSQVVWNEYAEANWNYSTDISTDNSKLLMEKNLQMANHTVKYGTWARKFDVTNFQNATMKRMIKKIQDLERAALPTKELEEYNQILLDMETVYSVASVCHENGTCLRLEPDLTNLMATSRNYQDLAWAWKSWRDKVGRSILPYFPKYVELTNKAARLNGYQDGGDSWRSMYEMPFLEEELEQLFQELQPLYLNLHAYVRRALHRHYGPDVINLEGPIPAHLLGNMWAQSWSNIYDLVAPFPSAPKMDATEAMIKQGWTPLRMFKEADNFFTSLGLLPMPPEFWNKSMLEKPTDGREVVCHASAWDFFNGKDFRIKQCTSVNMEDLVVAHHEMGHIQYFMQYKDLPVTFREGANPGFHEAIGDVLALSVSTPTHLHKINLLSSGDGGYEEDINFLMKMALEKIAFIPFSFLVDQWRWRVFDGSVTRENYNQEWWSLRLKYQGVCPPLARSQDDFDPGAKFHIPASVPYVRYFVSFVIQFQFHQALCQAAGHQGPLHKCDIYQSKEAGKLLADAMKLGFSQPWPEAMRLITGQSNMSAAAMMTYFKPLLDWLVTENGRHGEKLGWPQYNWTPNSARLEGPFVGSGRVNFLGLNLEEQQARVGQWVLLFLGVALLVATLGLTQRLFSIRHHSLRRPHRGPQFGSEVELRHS
Briefly: cell-based or functional assay.

As to “bFGF-D99A (from UniProt P09038-2) (ligand)”, the FGF-Rc Comp. (ED50 analog / ED50 wild type FGF) in experiment [1] came to 0.03. Besides, in experiment [2], the 3T3 Mito., 1 ug/ml heparin (ED50 wild type / ED50 analog x 100%) (% of wild type) was 280 and the 3T3 Mito., no heparin (ED50 wild type / ED50 analog x 100%) (% of wild type) amounted to 150. The molecule further had an FGF-Rc Comp. (ED50 analog / ED50 wild type FGF) in experiment [3] of 0.04.
Consider “bFGF-E108A (from UniProt P09038-2) (ligand)”, for which the FGF-Rc Comp. (ED50 analog / ED50 wild type FGF) in experiment [1] and in experiment [3] was 2.5 in each case. The molecule further had a 3T3 Mito., no heparin (ED50 wild type / ED50 analog x 100%) (% of wild type) in experiment [2] of 180.
Turning to “bFGF-K55I (from UniProt P09038-2) (ligand)”, the results for the FGF-Rc Comp. (ED50 analog / ED50 wild type FGF) in experiment [1] and in experiment [3] were 1.6 and 2, respectively. For the same molecule, in experiment [2], the 3T3 Mito., 1 ug/ml heparin (ED50 wild type / ED50 analog x 100%) (% of wild type) turned out to be 8. In experiment [2], this molecule yielded a 3T3 Mito., no heparin (ED50 wild type / ED50 analog x 100%) (% of wild type) of 1.
With “recombinant human basic FGF (wild type) (from UniProt P09038-2) (ligand)”, in experiment [4], the 3T3 mitogenic assay, ED50 in the absence of bFGF(25-155) was below 1 ng/mL; the 3T3 mitogenic assay, ED50 in the presence of 10 ng/ml bFGF(25-155) amounted to 10 ng/mL; the 3T3 mitogenic assay, ED50 in the presence of 100 ng/ml bFGF(25-155) came to 100 ng/mL. For the same molecule, the FGF-Rc Comp. (ED50 analog / ED50 wild type FGF) in experiment [1] was 1. Moreover, in experiment [2], the 3T3 Mito. (thymidine uptake), EC50 (ED50) turned out to be 0.63 ng/mL; the 3T3 Mito., 1 ug/ml heparin (ED50 wild type / ED50 analog x 100%) (% of wild type) was found to be 100; the 3T3 Mito., no heparin (ED50 wild type / ED50 analog x 100%) (% of wild type) turned out to be 100. Also, in experiment [5], the ACE Mito., 1 ug/ml heparin (ED50 wild type / ED50 analog x 100%) (% of wild type) was 100; the ACE Mito., no heparin (ED50 wild type / ED50 analog x 100%) (% of wild type) worked out at 100; the ACE cell proliferation, EC50 (ED50) came out at 0.16 ng/mL. The molecule further showed an FGF-Rc Comp. (ED50 analog / ED50 wild type FGF) in experiment [3] of 1. Also, the EC50 in experiment [6] is 10 ng/mL.
Regarding “bFGF(25-155) (from UniProt P09038-2) (ligand)”, the inhibition of the activity of 1 ng/ml wild type bFGF in the 3T3 mitogenic assay, no heparin in experiment [4] was above 95%. In experiment [2], the 3T3 Mito., 1 ug/ml heparin (ED50 wild type / ED50 analog x 100%) (% of wild type) is 100 and the 3T3 Mito., no heparin (ED50 wild type / ED50 analog x 100%) (% of wild type) turned out to be 50.
Consider “bFGF-Y112A (from UniProt P09038-2) (ligand)”, for which, in experiment [1], the FGF-Rc Comp. (ED50 analog / ED50 wild type FGF) turned out to be 100. In experiment [2], the 3T3 Mito., 1 ug/ml heparin (ED50 wild type / ED50 analog x 100%) (% of wild type) was determined as 0.2 and the 3T3 Mito., no heparin (ED50 wild type / ED50 analog x 100%) (% of wild type) was found to be 0.2. In experiment [3], this molecule showed an FGF-Rc Comp. (ED50 analog / ED50 wild type FGF) of 100.
On to “KR128, 129ST (from UniProt P09038-2) (ligand)”, for which the FGF-Rc Comp. (ED50 analog / ED50 wild type FGF) stood at 0.8 in experiment [1] and 2 in experiment [3]. Moreover, the 3T3 Mito., no heparin (ED50 wild type / ED50 analog x 100%) (% of wild type) in experiment [2] was 185.
Turning to “bFGF-R48A (from UniProt P09038) (ligand)”, the FGF-Rc Comp. (ED50 analog / ED50 wild type FGF) in experiment [1] is 0.3. Moreover, in experiment [5], the ACE Mito., 1 ug/ml heparin (ED50 wild type / ED50 analog x 100%) (% of wild type) was found to be 84.2 and the ACE Mito., no heparin (ED50 wild type / ED50 analog x 100%) (% of wild type) was found to be 8.9. Also, in experiment [3], the FGF-Rc Comp. (ED50 analog / ED50 wild type FGF) worked out at 0.32.
For “bFGF-R118L (from UniProt P09038) (ligand)”, the FGF-Rc Comp. (ED50 analog / ED50 wild type FGF) turned out to be 0.4 in experiment [1] and 0.5 in experiment [3]. The ACE Mito., no heparin (ED50 wild type / ED50 analog x 100%) (% of wild type) in experiment [5] is 1.8.
The matching figures for “bFGF-R48L (from UniProt P09038) (ligand)”: 2, 0.16 and 1.7.
Consider “bFGF-K119S (from UniProt P09038-2) (ligand)”, for which the FGF-Rc Comp. (ED50 analog / ED50 wild type FGF) in experiment [1] is 0.25; in experiment [3], 0.35. Also, the 3T3 Mito., 1 ug/ml heparin (ED50 wild type / ED50 analog x 100%) (% of wild type) in experiment [2] came out at 250. In experiment [2], the 3T3 Mito., no heparin (ED50 wild type / ED50 analog x 100%) (% of wild type) was found to be 48.
The matching figures for “bFGF-C78/96S (from UniProt P09038-2) (ligand)”: 0.1, 0.2, 160 and 118.
The matching figures for “bFGF-E105S (from UniProt P09038-2) (ligand)”: 40, 50, 100 and 12.6.
“bFGF-K128S (from UniProt P09038-2) (ligand)”: the FGF-Rc Comp. (ED50 analog / ED50 wild type FGF) in experiment [1] came out at 0.25; in experiment [3], 0.3. In experiment [2], the 3T3 Mito., no heparin (ED50 wild type / ED50 analog x 100%) (% of wild type) came to 210.
Turning to “bFGF-R31S (from UniProt P09038-2) (ligand)”, in experiment [1], the FGF-Rc Comp. (ED50 analog / ED50 wild type FGF) was 0.8. In experiment [2], the 3T3 Mito., 1 ug/ml heparin (ED50 wild type / ED50 analog x 100%) (% of wild type) was 100 and the 3T3 Mito., no heparin (ED50 wild type / ED50 analog x 100%) (% of wild type) amounted to 100. In experiment [3], this molecule registered an FGF-Rc Comp. (ED50 analog / ED50 wild type FGF) of 1.
As for “bFGF-R90T (from UniProt P09038-2) (ligand)”, the FGF-Rc Comp. (ED50 analog / ED50 wild type FGF) in experiment [1] stood at 0.5; in experiment [3], 0.6. Also, the 3T3 Mito., 1 ug/ml heparin (ED50 wild type / ED50 analog x 100%) (% of wild type) in experiment [2] came out at 216. This molecule displayed a 3T3 Mito., no heparin (ED50 wild type / ED50 analog x 100%) (% of wild type) in experiment [2] of 77.
The matching figures for “bFGF-R106L (from UniProt P09038-2) (ligand)”: 0.13, 0.3, 200 and 20.

B1: bFGF-C34/78/101S (ligand)
chain: MAAGSITTLPALPEDGGSGAFPPGHFKDPKRLYSKNGGFFLRIHPDGRVDGVREKSDPHIKLQLQAEERGVVSIKGVSANRYLAMKEDGRLLASKCVTDESFFFERLESNNYNTYRSRKYTSWYVALKRTGQYKLGSKTGPGQKAILFLPMSAKS
B1: in experiment [7], the “ACE Mito., 1 ug/ml heparin (ED50 wild type / ED50 analog x 100%)” value is 72 % of wild type and the “ACE Mito., no heparin (ED50 wild type / ED50 analog x 100%)” value was 2 % of wild type. Also, in experiment [1], the FGF-Rc Comp. (ED50 analog / ED50 wild type FGF) stood at 0.5. Besides, in experiment [2], the 3T3 Mito., 1 ug/ml heparin (ED50 wild type / ED50 analog x 100%) (% of wild type) was determined as 144 and the 3T3 Mito., no heparin (ED50 wild type / ED50 analog x 100%) (% of wild type) was 65. In experiment [3], this molecule showed an FGF-Rc Comp. (ED50 analog / ED50 wild type FGF) of 0.45.

B2: bFGF-C78/96/101S (ligand)
chain: B1 chain with S34C, C96S
Turning to B2, in experiment [7], the “ACE Mito., 1 ug/ml heparin (ED50 wild type / ED50 analog x 100%)” value was 125 % of wild type and the “ACE Mito., no heparin (ED50 wild type / ED50 analog x 100%)” value is 23 % of wild type.

B3: bFGF-C34/78/96/101S (ligand)
chain: B1 chain with C96S
Take B3: in experiment [7], the “ACE Mito., 1 ug/ml heparin (ED50 wild type / ED50 analog x 100%)” value is 119 % of wild type and the “ACE Mito., no heparin (ED50 wild type / ED50 analog x 100%)” value is 7 % of wild type. Also, the FGF-Rc Comp. (ED50 analog / ED50 wild type FGF) in experiment [1] amounted to 0.5. Besides, the FGF-Rc Comp. (ED50 analog / ED50 wild type FGF) in experiment [3] is 1.
